Numbering of substitutions follows the chain as printed.

This note sets out measurements from US20260139057A1 (University of California, published 2026).

Test [1] has as its target T1, recombinant human integrin αvβ8 ectodomain (human, UniProt P06756 31-992; P26012 43-681). As to the kind of experiment: cell-based or functional assay.
The target of test [2] is T1, recombinant human integrin αvβ8 …. As to the kind of experiment: cell-based or functional assay. The source holds these as a separate data set.
For test [3] the target is unchanged. Description: cell-based or functional assay. The source holds these as a separate data set.
Test [4] has as its target T2, integrin αvβ5 ectodomain (immobilized) (Homo sapiens (Human), UniProt P06756 31-992; P18084 24-719).
T2 construct: R&D Systems; copies: 1 + 1
Description: binding to immobilized integrin ectodomains blocked with BSA.

Test [5] addresses T3, integrin αvβ1 ectodomain (immobilized) (Homo sapiens (Human), UniProt P06756 31-992; P05556 21-728).
T3 construct: R&D Systems; copies: 1 + 1
The description is as above.

Test [6] concerns the target integrin αvβ6 ectodomain (immobilized) (human, UniProt P06756 31-992; P18564 22-709). Description: cell-based or functional assay.
Test [7] deals with T1, recombinant human integrin αvβ8 …. Description: cell-based or functional assay. This is another data set of the same source.

T1 sequence (P06756 31-992 limits assumed, chain 1 of 2): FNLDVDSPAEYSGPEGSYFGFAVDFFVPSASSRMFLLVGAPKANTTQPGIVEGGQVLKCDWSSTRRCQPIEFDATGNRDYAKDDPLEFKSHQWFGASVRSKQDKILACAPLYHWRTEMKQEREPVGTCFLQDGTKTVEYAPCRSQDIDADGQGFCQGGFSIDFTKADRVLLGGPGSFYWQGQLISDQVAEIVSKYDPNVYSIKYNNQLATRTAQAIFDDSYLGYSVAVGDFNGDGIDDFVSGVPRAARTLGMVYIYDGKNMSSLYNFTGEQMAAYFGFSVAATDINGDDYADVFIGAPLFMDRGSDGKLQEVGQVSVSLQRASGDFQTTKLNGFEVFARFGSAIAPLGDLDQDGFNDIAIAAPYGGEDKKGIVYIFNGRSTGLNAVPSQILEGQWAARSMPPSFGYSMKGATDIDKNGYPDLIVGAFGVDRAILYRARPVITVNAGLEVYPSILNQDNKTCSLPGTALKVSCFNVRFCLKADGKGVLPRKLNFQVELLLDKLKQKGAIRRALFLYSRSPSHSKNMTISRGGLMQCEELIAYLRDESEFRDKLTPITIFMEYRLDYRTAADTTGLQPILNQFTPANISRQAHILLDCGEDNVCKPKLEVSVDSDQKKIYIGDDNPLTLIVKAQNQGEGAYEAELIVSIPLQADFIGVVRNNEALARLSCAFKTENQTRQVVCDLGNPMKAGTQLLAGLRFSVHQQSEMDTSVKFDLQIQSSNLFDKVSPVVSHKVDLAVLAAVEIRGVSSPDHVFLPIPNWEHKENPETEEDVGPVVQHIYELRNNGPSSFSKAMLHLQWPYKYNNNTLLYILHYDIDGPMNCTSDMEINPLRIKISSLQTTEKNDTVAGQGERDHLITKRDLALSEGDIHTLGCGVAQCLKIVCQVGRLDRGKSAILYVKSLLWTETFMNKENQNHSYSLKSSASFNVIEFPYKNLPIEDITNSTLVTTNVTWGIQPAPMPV
T1 sequence (P26012 43-681 limits assumed, chain 2 of 2): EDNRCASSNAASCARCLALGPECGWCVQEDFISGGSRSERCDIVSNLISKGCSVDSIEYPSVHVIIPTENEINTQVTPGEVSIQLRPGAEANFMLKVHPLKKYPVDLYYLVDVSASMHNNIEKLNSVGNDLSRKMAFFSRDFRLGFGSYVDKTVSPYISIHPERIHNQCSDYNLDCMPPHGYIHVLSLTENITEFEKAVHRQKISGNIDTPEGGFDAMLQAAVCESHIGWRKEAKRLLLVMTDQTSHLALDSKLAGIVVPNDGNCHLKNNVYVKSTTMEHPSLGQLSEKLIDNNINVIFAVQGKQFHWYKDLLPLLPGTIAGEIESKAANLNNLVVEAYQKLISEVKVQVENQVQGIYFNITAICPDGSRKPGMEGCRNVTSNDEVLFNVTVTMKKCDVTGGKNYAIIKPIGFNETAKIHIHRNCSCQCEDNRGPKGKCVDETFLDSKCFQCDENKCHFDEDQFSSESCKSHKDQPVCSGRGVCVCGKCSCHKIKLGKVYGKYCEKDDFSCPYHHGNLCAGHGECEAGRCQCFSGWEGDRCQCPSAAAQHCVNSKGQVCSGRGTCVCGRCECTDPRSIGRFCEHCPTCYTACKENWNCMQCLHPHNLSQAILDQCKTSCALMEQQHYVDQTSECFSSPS
T2 sequence (P06756 31-992 limits assumed, chain 1 of 2): as the sequence (P06756 31-992 limits assumed, chain 1 of 2) above
T2 sequence (P18084 24-719 limits assumed, chain 2 of 2): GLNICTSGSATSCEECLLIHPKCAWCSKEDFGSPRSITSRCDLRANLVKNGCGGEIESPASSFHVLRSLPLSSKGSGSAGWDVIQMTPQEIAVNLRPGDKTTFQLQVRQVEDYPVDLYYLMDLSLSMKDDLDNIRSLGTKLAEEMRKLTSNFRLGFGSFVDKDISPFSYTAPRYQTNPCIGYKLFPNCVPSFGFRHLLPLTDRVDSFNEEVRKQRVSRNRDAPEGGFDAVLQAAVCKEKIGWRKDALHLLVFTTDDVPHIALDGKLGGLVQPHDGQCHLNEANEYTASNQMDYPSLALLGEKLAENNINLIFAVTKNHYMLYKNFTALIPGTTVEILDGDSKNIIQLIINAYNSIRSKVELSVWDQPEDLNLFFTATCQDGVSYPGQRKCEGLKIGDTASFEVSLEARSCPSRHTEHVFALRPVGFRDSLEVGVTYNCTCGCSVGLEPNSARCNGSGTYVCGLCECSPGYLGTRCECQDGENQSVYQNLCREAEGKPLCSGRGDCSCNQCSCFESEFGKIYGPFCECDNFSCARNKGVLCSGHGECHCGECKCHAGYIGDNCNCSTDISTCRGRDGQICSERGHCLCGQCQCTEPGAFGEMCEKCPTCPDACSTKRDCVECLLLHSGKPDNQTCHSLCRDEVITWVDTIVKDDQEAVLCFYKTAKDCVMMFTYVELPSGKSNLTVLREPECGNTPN
T3 sequence (P06756 31-992 limits assumed, chain 1 of 2): as the sequence (P06756 31-992 limits assumed, chain 1 of 2) above
T3 sequence (P05556 21-728 limits assumed, chain 2 of 2): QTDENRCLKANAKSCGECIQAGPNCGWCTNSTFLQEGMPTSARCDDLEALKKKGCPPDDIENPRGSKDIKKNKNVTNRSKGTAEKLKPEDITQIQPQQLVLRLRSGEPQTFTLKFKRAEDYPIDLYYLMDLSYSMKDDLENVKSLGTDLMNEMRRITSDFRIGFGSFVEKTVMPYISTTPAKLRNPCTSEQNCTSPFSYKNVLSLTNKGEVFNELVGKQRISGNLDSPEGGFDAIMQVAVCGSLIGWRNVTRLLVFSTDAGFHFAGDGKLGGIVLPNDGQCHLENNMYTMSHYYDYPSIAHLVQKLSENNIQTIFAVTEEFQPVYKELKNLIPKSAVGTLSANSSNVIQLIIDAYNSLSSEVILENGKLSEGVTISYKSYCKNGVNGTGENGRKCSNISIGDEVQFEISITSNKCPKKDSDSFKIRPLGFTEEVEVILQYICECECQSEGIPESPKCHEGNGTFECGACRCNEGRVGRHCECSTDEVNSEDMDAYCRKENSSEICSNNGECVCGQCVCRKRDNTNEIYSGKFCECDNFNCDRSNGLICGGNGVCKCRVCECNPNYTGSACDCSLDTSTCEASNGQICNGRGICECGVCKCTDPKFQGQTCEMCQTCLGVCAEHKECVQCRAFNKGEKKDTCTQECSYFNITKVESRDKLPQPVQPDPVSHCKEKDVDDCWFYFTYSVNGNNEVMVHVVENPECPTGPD
integrin αvβ6 ectodomain (immobilized), sequence (P06756 31-992, chain 1 of 2): as the sequence (P06756 31-992 limits assumed, chain 1 of 2) above
integrin αvβ6 ectodomain (immobilized), sequence (P18564 22-709, chain 2 of 2): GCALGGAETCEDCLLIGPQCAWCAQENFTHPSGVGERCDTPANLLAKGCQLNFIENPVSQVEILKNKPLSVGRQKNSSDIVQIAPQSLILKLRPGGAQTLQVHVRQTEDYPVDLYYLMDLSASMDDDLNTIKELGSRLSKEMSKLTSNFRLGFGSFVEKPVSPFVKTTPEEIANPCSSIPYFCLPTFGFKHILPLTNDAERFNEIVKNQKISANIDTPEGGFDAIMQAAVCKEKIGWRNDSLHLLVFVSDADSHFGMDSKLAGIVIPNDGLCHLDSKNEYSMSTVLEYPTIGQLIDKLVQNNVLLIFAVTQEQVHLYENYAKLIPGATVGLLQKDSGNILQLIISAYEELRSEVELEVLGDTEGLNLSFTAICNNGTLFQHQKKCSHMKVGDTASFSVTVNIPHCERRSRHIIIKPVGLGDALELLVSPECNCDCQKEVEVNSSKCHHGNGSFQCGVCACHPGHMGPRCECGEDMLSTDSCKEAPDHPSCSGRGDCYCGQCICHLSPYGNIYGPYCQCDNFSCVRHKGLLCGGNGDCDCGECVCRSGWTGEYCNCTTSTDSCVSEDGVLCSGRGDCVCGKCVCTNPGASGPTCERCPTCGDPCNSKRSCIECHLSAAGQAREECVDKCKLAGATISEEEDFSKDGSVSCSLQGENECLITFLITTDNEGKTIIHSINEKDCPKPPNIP

B1: HuC6D4 IgG2a (antibody, V domains shown)
VH: QIQLVQSGAEVKKPGASVKISCKASGYTFTDYSMHWVRQAPGQGLEWVARINTETGEPTFADDFRGRFTVTLDTSTSTAYLEIRSLRSDDTAVYFCAIFYYGRDTWGQGTTLTVSS
VL: EIVMTQSPATLSVSPGERVTMSCKSSQSLLNSRSRKNYLAWYQQKPGQAPRLLIYWASTRESGVPARFSGSGSGTEFTLTISSVQSEDFAVYYCKQSYNLLSFGQGTVLEIKR
Turning to B1, in test [1], the “EC50 of inhibition of αvβ8-mediated TGF-β activation” value turned out to be 0.23 µM. In addition, in test [2], the “IC50 of the inhibition of TGF-β activation (TMLC GARP/TGF-β1 reporter cells on αvβ8-coated wells)” value is 3.1 µg/mL. Moreover, the “ED50 of the inhibition of αvβ8-mediated TGF-β activation (immobilized αvβ8, TMLC GARP/L-TGF-β reporter cells)” value in test [3] came out at 0.23 µg/mL.

B2: H3.C12, human IgG4 (antibody, V domains shown)
VH: QVQLVQSGAEVKKPGASVKVSCKVSGYTLTEQSMHWVRQAPGKGLEWMGRINTETGEPTYAQKFQGRVTMTQDTSTDTAYMELSSLRSEDTAVYFCAIFYYGRDTWGQGTTVTVSS
VL: B1 VL with K24R, N31H, S34T, S62T, V84L
For B2, in test [1], the “EC50 of inhibition of αvβ8-mediated TGF-β activation” value worked out at 0.25 µM. Moreover, in test [3], the “ED50 of the inhibition of αvβ8-mediated TGF-β activation (immobilized αvβ8, TMLC GARP/L-TGF-β reporter cells)” value came out at 0.25 µg/mL.

B3: H4C8m (H4C8 with non-humanized, murine VL Fr4), human IgG4 (antibody, V domains shown)
VH: B2 VH with E31R
VL: B1 VL with M21L, K24R, N31H, S62T, V84L
On to B3, for which, in test [1], the “EC50 of inhibition of αvβ8-mediated TGF-β activation” value was 0.3 µM. Besides, in test [3], the “ED50 of the inhibition of αvβ8-mediated TGF-β activation (immobilized αvβ8, TMLC GARP/L-TGF-β reporter cells)” value came out at 0.03 µg/mL.

B4: HuC6D4 RGD3, mouse IgG2a (antibody, V domains shown)
VH: B1 VH
VL: EIVMTQSPATLSVSPGERVTMSCKSSQSLLGRGDLGRLKKNALAWYQQKPGQAPRLLIYWASTRESGVPARFSGSGSGTEFTLTISSVQSEDFAVYYCKQSYNLLSFGQGTVLEIKR
notes: Mouse IgG2a
Regarding B4, the binding result in test [4] and in test [5] was “no binding” each time. Moreover, the “ED50 of the inhibition of αvβ6-mediated TGF-β activation (immobilized human αvβ6, TMLC GARP/L-TGF-β reporter cells)” value in test [6] stood at 1.54 µg/mL. Besides, in test [7], the “ED50 of the inhibition of αvβ8-mediated TGF-β activation (immobilized human αvβ8, TMLC GARP/L-TGF-β reporter cells)” value was 3.3 µg/mL.

B5: huF12 VH with huC6D4 VL, murine IgG2a (antibody, V domains shown)
VH: B1 VH with D31K
VL: B1 VL
For B5, the “IC50 of the inhibition of TGF-β activation (TMLC GARP/TGF-β1 reporter cells on αvβ8-coated wells)” value in test [2] was 0.337 µg/mL.

B6: huC6D4 VH with huF12 VL, murine IgG2a (antibody, V domains shown)
VH: B1 VH
VL: B1 VL with N31H
For the molecule B6, the “IC50 of the inhibition of TGF-β activation (TMLC GARP/TGF-β1 reporter cells on αvβ8-coated wells)” value in test [2] stood at 1.15 µg/mL.
